PMC2821021 (Biochemical and biophysical research communications, 2009)

Target: T1, 1st beta propeller of human LRP5 (human, UniProt O75197 32-338)
T1 sequence (looked up): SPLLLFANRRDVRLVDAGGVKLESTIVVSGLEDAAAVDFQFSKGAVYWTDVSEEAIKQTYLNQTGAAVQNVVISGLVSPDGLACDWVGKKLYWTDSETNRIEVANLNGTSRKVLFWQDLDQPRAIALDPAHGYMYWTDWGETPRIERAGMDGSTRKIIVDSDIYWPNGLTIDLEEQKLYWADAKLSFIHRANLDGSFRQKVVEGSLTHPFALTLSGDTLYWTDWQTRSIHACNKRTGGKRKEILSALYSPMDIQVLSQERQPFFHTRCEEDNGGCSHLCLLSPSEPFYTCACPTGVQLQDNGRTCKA
Experiment: SPR

B1: Recombinant insect cell-produced human sclerostin (natural protein, UniProt Q9BQB4 24-213, looked up)
chain: QGWQAFKNDATEIIPELGEYPEPPPELENNKTMNRAENGGRPPHHPFETKDVSEYSCRELHFTRYVTDGPCRSAKPVTELVCSGQCGPARLLPNAIGRGKWWRPSGPDFRCIPDRYRAQRVQLLCPGGEAPRARKVRLVASCKCKRLTRFHNQSELKDFGTEAARPQKGRKPRPRARSAKANQAELENAY
  binding result: binds
